Experimental data taken from PMC4617613 (Nature, 2015).

B1: PhnI (natural protein)
chain: MYVAVKGGEKAIDAAHALQESRRRGDTDLPELSVAQIEQQLNLAVDRVMTEGGIADRELAALALKQASGDNVEAIFLLRAYRTTLAKLAVSEPLDTTGMRLERRISAVYKDIPGGQLLGPTYDYTHRLLDFTLLANGEAPTLTTADSEQQPSPHVFSLLARQGLAKFEEDSGAQPDDITRTPPVYPCSRSSRLQQLMRGDEGYLLALAYSTQRGYGRNHPFAGEIRSGYIDVSIVPEELGFAVNVGELLMTECEMVNGFIDPPGEPPHFTRGYGLVFGMSERKAMAMALVDRALQAPEYGEHATGPAQDEEFVLAHADNVEAAGFVSHLKLPHYVDFQAELELLKRLQQEQNHG

Legend:
PhnI = target: B1; test: crystal structure
crystal structure = target: the molecule itself; test: crystal structure

binding result (PhnI) | Binder | stoichiometry N (crystal structure)
binds | PhnG (natural protein) MHADTATRQHWMSVLAHSQPAELAARLNALNITADYEVIRAAETGLVQIQARMGGTGERFFAGDATLTRAAVRLTDGTLGYSWVQGRDKQHAERCALIDALMQQSRHFQNLSETLIAPLDADRMARIAARQAEVNASRVDFFTMVRGDNA | –
binds | PhnJ (natural protein) MANLSGYNFAYLDEQTKRMIRRAILKAVAIPGYQVPFGGREMPMPYGWGTGGIQLTASVIGESDVLKVIDQGADDTTNAVSIRNFFKRVTGVNTTERTDDATVIQTRHRIPETPLTEDQIIIFQVPIPEPLRFIEPRETETRTMHALEEYGVMQVKLYEDIARFGHIATTYAYPVKVNGRYVMDPSPIPKFDNPKMDMMPALQLFGAGREKRIYAVPPFTRVESLDFDDHPFTVQQWDEPCAICGSTHSYLDEVVLDDAGNRMFVCSDTDYCRQQSEAKNQ | –
– | B1 | 2
